According to patent US20210236667A1:
Like-named read-outs stand apart in the source and are kept apart here.

B1: 8709-scFv-Fc-PEG6-DM1 (scFv, part only; not given: scFv linker, hinge and Fc, V domains shown, not shown: another chain or arm of the molecule; a dimerising Fc or GST; small tags and cut ends)
VH: EVQLVESGGGLVQPGGSLRLSCAASGFNLYSSSMHWVRQAPGKGLEWVASIYPYSGYTYYADSVKGRFTISADTSKNTAYLQMNSLRAEDTAVYYCARYPFGVSAYYAMDYWGQGTLVTVSS
VL: DIQMTQSPSSLSASVGDRVTITCRASQSVSSAVAWYQQKPGKAPKLLIYSASSLYSGVPSRFSGSRSGTDFTLTISSLQPEDFATYYCQQSYWLITFGQGTKVEIK
modifications: PEG6-DM1 coupled via DM1-PEG6-NHS, drug to antibody ratio 3.5; attachment sites not stated.
B2: Macropa-8709-scFv-Fc (scFv, part only; not given: scFv linker, hinge and Fc, V domains shown, not shown: another chain or arm of the molecule; a dimerising Fc or GST; small tags and cut ends)
VH: B1 VH
VL: B1 VL
modifications: Macropa chelator coupled via macropa-NCS, not radiolabeled; attachment sites not stated.
B3: 8709-scFv-Fc (scFv, part only; not given: scFv linker, hinge and Fc, V domains shown, not shown: another chain or arm of the molecule; a dimerising Fc or GST; small tags and cut ends)
VH: B1 VH
VL: B1 VL
B4: ^225Ac-8709-scFv-Fc (scFv, part only; not given: scFv linker, hinge and Fc, V domains shown, not shown: another chain or arm of the molecule; a dimerising Fc or GST; small tags and cut ends)
VH: B1 VH
VL: B1 VL
modifications: Macropa chelator (coupled via macropa-NCS) carrying ^225Ac; attachment sites not stated.

What was measured:
[1] = molecular target: Human epidermal growth factor receptor (EGFR) (human) (UniProt P00533); experiment: flow cytometry on MDA-MB-468 cells
[2] = molecular target: Human epidermal growth factor receptor (EGFR) (human) (UniProt P00533); experiment: flow cytometry saturation binding on MDA-MB-468 cells
[3] = molecular target: Human epidermal growth factor receptor (EGFR) (human) (UniProt P00533); experiment: flow cytometry on MDA-MB-468 cells; remark: listed apart in the source
[4] = molecular target: Human epidermal growth factor receptor (EGFR) (human) (UniProt P00533); experiment: competitive radioligand binding on MDA-MB-468 cells pre-blocked with 100-fold excess of unlabeled 8709-scFv-Fc; ^225Ac-8709-scFv-Fc at 50 nM
[5] = molecular target: Human epidermal growth factor receptor (EGFR) (human) (UniProt P00533); experiment: saturation radioligand binding assay on MDA-MB-468 cells
[6] = molecular target: Human epidermal growth factor receptor (EGFR) (human) (UniProt P00533); experiment: immunoreactive fraction (Lindmo) assay on MDA-MB-468 cells

Binder | % binding [1] [%] | Kd [2] [nM] | % binding [3] [%] | fold higher KD as compared to 8709-scFv-Fc [2] [fold] | fold reduction in the binding of ^225Ac-8709-scFv-Fc to EGFR [4] [fold] | Kd [5] [nM] | immunoreactive fraction [6]
B1 | > 90 | 4.2 | – | – | – | – | –
B2 | > 90 | 11.3 | > 85 | 10.4 | – | – | –
B3 | > 90 | 1.1 | – | – | 23.2 | – | –
B4 | – | – | – | – | – | 14.5 | 0.86
